{"source": "patent US20210285024", "key": {"[1]": {"molecular_target": "human tubulin purified from HEK293 cells"}, "[2]": {"molecular_target": "tubulin purified from Spodoptera Frugiperda Sf9 cells (fully tyrosinated; used as purified tubulin or polymerised microtubules)"}}}
{"protein": "recombinant SVBP-VASH2 complex (protein) chain 1: not shown chain 2: MDPPARKEKTKVKESVSRVEKAKQKSAQQELKQRQRAEIYALNRVMTELEQQQFDEFCKQMQPPGE", "values": [{"measurement": "detyrosination assay (western blot, relative optical density detyrosination/tubulin)", "setting": "[1]", "result": "the fold induction of the tubulin detyrosination resulting from SVBP-VASH2 complex was significantly lower with human tubulin purified from HEK293 cells in comparison to the one obtained using Sf9 cells extracted tubulin"}, {"measurement": "detyrosination assay (western blot, relative optical density detyrosination/tubulin)", "setting": "[2]", "result": "SVBP-VASH2 complex strongly induced detyrosination in the assay"}]}
